Laboratory results from the supplement of paper PMC7877785.
± gives the uncertainty stated by the source.

Assay: self-splicing fitness, log relative to wild type (ln ratio); higher = more splicing; Tetrahymena group I intron in knt gene, E. coli kanamycin selection, DiMSum; sequences stand for … in CUCUCU…GGAGGGAAAAGUUAUCAGGCAUGCACCUGGUAGCUAGUCUUUAAACCAAUAGAUUGCAUCGGUUUAAAAGGCAAGACCGUCAAAUUGCGGGAAAGGGGUCAACAGCCGUUCAGUACCAAGUCUCAGGGGAAACUUUGAGAUGGCCUUGCAAAGGGUAUGGUAAUAAGCUGACGGACAUGGUCCUAACCACGCAGCCAAGUCCUAAGUCAACAGAUCUUCUGUUGAUAUGGAUGCAGUUCACAGACUAAAUGUCGGUCGGGGAAGAUGUAUUCUUCUCAUAAGAUAUAGUCGGACCUCUCCUUAAUGGGAGCUAGCGGAUGAAGUGAUGCAACACUGGAGCCGCUGGGAACUAAUUUGUAUGCGAAAGUAUAUUGAUUAGUUUUGGAGUACUCGUGGUCG
Outline: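 The eight P1ex-region nucleotides of an intron in the knt kanamycin-resistance gene on pET-22b(+) were all randomised and the library put into E. coli BL21(DE3). Six replicate transformations were grown overnight at 37°C or 30°C on LB agar with or without 25 μg/mL kanamycin, together with 100 μg/mL carbenicillin, 50 μM IPTG and 0.2% rhamnose. Colonies were pooled and amplicon-sequenced on an Illumina HiSeq 2500. Fitness from DiMSum is the error-weighted combination of wild-type-normalised replicate fold changes, kanamycin over none.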

| Sequence | self-splicing fitness (ln) (30 °C) | self-splicing fitness (ln) (37 °C) |
| --- | --- | --- |
| UAAAAGCAAUAUUACGACUU | -0.473 ± 0.098 | -0.07 ± 0.15 |
| UAAAAGCAAUAUUACGAUAA | -0.739 ± 0.077 | -0.348 ± 0.1 |
| UAAAAGCAAUAUUACGCAGC | – | -2.47 ± 0.39 |
| UAAAAGCAAUAUUACGCCAA | -2.34 ± 0.22 | -1.63 ± 0.18 |
| UAAAAGCAAUAUUACGCCAU | -3.62 ± 0.26 | -2.82 ± 0.3 |
| UAAAAGCAAUAUUACGCGAA | -2.23 ± 0.12 | -0.719 ± 0.12 |
| UAAAAGCAAUAUUACGCGAU | -3.3 ± 0.17 | -2.51 ± 0.2 |
| UAAAAGCAAUAUUACGCGGC | -3.63 ± 0.47 | -2.1 ± 0.31 |
| UAAAAGCAAUAUUACGCGUU | -2.85 ± 0.13 | -1.14 ± 0.13 |
| UAAAAGCAAUAUUACGCUAG | -1.09 ± 0.07 | -0.327 ± 0.091 |
| UAAAAGCAAUAUUACGCUCC | -2.04 ± 0.46 | -0.325 ± 0.48 |
| UAAAAGCAAUAUUACGGAAU | -3.12 ± 0.17 | -2.18 ± 0.2 |
| UAAAAGCAAUAUUACGGAGU | -3.65 ± 0.2 | -2.45 ± 0.19 |
| UAAAAGCAAUAUUACGGAUG | -0.849 ± 0.077 | 0.0272 ± 0.099 |
| UAAAAGCAAUAUUACGGAUU | -2.12 ± 0.14 | -1.56 ± 0.19 |
| UAAAAGCAAUAUUACGGCGG | -0.373 ± 0.078 | -0.0776 ± 0.11 |
| UAAAAGCAAUAUUACGGGCU | -2.79 ± 0.23 | -2 ± 0.29 |
| UAAAAGCAAUAUUACGGUAG | -1.14 ± 0.086 | -0.722 ± 0.097 |
| UAAAAGCAAUAUUACGGUGC | -3.65 ± 0.42 | -2.92 ± 0.35 |
| UAAAAGCAAUAUUACGUCAG | -1.56 ± 0.074 | -0.962 ± 0.097 |
| UAAAAGCAAUAUUACGUCGA | -1.39 ± 0.1 | -0.424 ± 0.12 |
| UAAAAGCAAUAUUACGUCGC | -3.18 ± 0.24 | -2.44 ± 0.36 |
| UAACAGCAAUAUUACGAGCC | -2.65 ± 0.24 | -2.24 ± 0.49 |
| UAACAGCAAUAUUACGAGGC | -3.62 ± 0.2 | -1.97 ± 0.18 |
| UAACAGCAAUAUUACGAUCA | -0.292 ± 0.074 | 0.115 ± 0.07 |

| Sequence | self-splicing fitness (ln) (30 °C) | self-splicing fitness (ln) (37 °C) |
| --- | --- | --- |
| UAACAGCAAUAUUACGAUCC | – | -2.04 ± 0.42 |
| UAACAGCAAUAUUACGAUGA | -1.01 ± 0.078 | -0.269 ± 0.088 |
| UAACAGCAAUAUUACGCAGU | -3.43 ± 0.19 | -3.5 ± 0.27 |
| UAACAGCAAUAUUACGCGUA | -0.931 ± 0.063 | -0.365 ± 0.067 |
| UAACAGCAAUAUUACGCGUC | -4.61 ± 0.34 | -2.7 ± 0.18 |
| UAACAGCAAUAUUACGCUGG | -3.29 ± 0.17 | -2.42 ± 0.21 |
| UAACAGCAAUAUUACGGAAG | -2.59 ± 0.12 | -1.93 ± 0.12 |
| UAACAGCAAUAUUACGGAAU | -3.31 ± 0.14 | -2.24 ± 0.15 |
| UAACAGCAAUAUUACGGCCG | -0.568 ± 0.078 | 0.226 ± 0.12 |
| UAACAGCAAUAUUACGGGCU | -4.01 ± 0.21 | -2.3 ± 0.16 |
| UAACAGCAAUAUUACGGUGA | -1.08 ± 0.075 | -0.658 ± 0.082 |
| UAACAGCAAUAUUACGUAGG | -2.08 ± 0.065 | -1.65 ± 0.079 |
| UAACAGCAAUAUUACGUCGC | -3.59 ± 0.38 | -2.73 ± 0.44 |
| UAACAGCAAUAUUACGUCUC | -3.01 ± 0.12 | -3.02 ± 0.2 |
| UAACAGCAAUAUUACGUGAU | -2.4 ± 0.12 | -1.7 ± 0.17 |
| UAAGAGCAAUAUUACGAGUU | -3.16 ± 0.14 | -2.87 ± 0.23 |
| UAAGAGCAAUAUUACGAUUG | -1.72 ± 0.11 | -0.83 ± 0.12 |
| UAAGAGCAAUAUUACGCAGA | -2.62 ± 0.18 | -2.24 ± 0.23 |
| UAAGAGCAAUAUUACGCCAC | -2.07 ± 0.22 | -1.59 ± 0.29 |
| UAAGAGCAAUAUUACGCCUU | -3.87 ± 0.25 | -2.89 ± 0.48 |
| UAAGAGCAAUAUUACGCGCA | -1.81 ± 0.2 | -1.16 ± 0.3 |
| UAAGAGCAAUAUUACGCUGG | -2.31 ± 0.26 | -2.37 ± 0.27 |
| UAAGAGCAAUAUUACGGCCU | -1.36 ± 0.47 | – |
| UAAGAGCAAUAUUACGGCGA | -2.7 ± 0.32 | -2.09 ± 0.26 |
| UAAGAGCAAUAUUACGGUCA | -1.77 ± 0.18 | -2.52 ± 0.17 |

| Sequence | self-splicing fitness (ln) (30 °C) | self-splicing fitness (ln) (37 °C) |
| --- | --- | --- |
| UAAGAGCAAUAUUACGGUCG | -2.81 ± 0.16 | -1.85 ± 0.15 |
| UAAGAGCAAUAUUACGUAGU | -3.21 ± 0.19 | -2.32 ± 0.26 |
| UAAGAGCAAUAUUACGUCAC | -2.67 ± 0.3 | -2.04 ± 0.34 |
| UAAGAGCAAUAUUACGUGUC | -3.09 ± 0.21 | -0.977 ± 0.17 |
| UAAGAGCAAUAUUACGUUGG | -2.87 ± 0.28 | – |
| UAAUAGCAAUAUUACGAAUA | -2.51 ± 0.34 | -1.28 ± 0.17 |
| UAAUAGCAAUAUUACGACGA | -1.41 ± 0.13 | -1.15 ± 0.14 |
| UAAUAGCAAUAUUACGACUG | -0.137 ± 0.062 | 0.0819 ± 0.078 |
| UAAUAGCAAUAUUACGAUCG | 0.121 ± 0.076 | 0.472 ± 0.099 |
| UAAUAGCAAUAUUACGAUGA | -2.56 ± 0.19 | -1.48 ± 0.16 |
| UAAUAGCAAUAUUACGCAGG | -1.82 ± 0.1 | -1.48 ± 0.14 |
| UAAUAGCAAUAUUACGCAUA | -1.13 ± 0.18 | -0.681 ± 0.15 |
| UAAUAGCAAUAUUACGCCAA | – | -2.37 ± 0.26 |
| UAAUAGCAAUAUUACGCCAC | -1.32 ± 0.19 | -1.89 ± 0.44 |
| UAAUAGCAAUAUUACGCUGA | -2.81 ± 0.28 | -1.23 ± 0.15 |
| UAAUAGCAAUAUUACGGACG | -0.227 ± 0.12 | 0.175 ± 0.15 |
| UAAUAGCAAUAUUACGGAUU | -2.69 ± 0.36 | -1.02 ± 0.28 |
| UAAUAGCAAUAUUACGGUGA | -3.61 ± 0.3 | -2.39 ± 0.26 |
| UAAUAGCAAUAUUACGUCGG | -2.21 ± 0.11 | -1.49 ± 0.14 |
| UAAUAGCAAUAUUACGUGUU | -1.68 ± 0.14 | -1.97 ± 0.17 |
| UAAUAGCAAUAUUACGUUAA | -3.02 ± 0.23 | -2.53 ± 0.19 |
| UACAAGCAAUAUUACGAGUG | -1.35 ± 0.064 | -0.768 ± 0.071 |
| UACAAGCAAUAUUACGAUGA | -0.422 ± 0.072 | -0.314 ± 0.085 |
| UACAAGCAAUAUUACGCCCU | -0.317 ± 0.085 | -0.111 ± 0.12 |
| UACAAGCAAUAUUACGCCGC | – | -2.06 ± 0.43 |

| Sequence | self-splicing fitness (ln) (30 °C) | self-splicing fitness (ln) (37 °C) |
| --- | --- | --- |
| UACAAGCAAUAUUACGCCGG | -1.53 ± 0.11 | -0.146 ± 0.18 |
| UACAAGCAAUAUUACGCCUG | -0.585 ± 0.081 | 0.17 ± 0.11 |
| UACAAGCAAUAUUACGCGCG | -0.759 ± 0.088 | 0.0647 ± 0.1 |
| UACAAGCAAUAUUACGGAGU | -4.15 ± 0.29 | -1.71 ± 0.16 |
| UACAAGCAAUAUUACGGCGC | -1.51 ± 0.085 | -0.801 ± 0.099 |
| UACAAGCAAUAUUACGGGGG | -2.66 ± 0.14 | -2.02 ± 0.13 |
| UACAAGCAAUAUUACGGUUG | -2.1 ± 0.11 | -1.91 ± 0.15 |
| UACAAGCAAUAUUACGUAAA | -2.45 ± 0.073 | -1.38 ± 0.087 |
| UACAAGCAAUAUUACGUAGA | -2.84 ± 0.14 | -1.46 ± 0.13 |
| UACAAGCAAUAUUACGUAGC | -3.5 ± 0.18 | -2.09 ± 0.2 |
| UACAAGCAAUAUUACGUAUG | -3.68 ± 0.17 | -2.11 ± 0.14 |
| UACAAGCAAUAUUACGUCUU | -3.55 ± 0.17 | -1.68 ± 0.13 |
| UACAAGCAAUAUUACGUGGC | -3 ± 0.14 | -1.94 ± 0.22 |
| UACAAGCAAUAUUACGUUCA | -0.621 ± 0.052 | -0.478 ± 0.069 |
| UACAAGCAAUAUUACGUUCG | -0.617 ± 0.074 | 0.321 ± 0.099 |
| UACAAGCAAUAUUACGUUCU | -1.28 ± 0.12 | -0.681 ± 0.12 |
| UACCAGCAAUAUUACGAAAC | -2.69 ± 0.23 | -2.14 ± 0.27 |
| UACCAGCAAUAUUACGAAGG | -2.22 ± 0.11 | -0.865 ± 0.12 |
| UACCAGCAAUAUUACGAAGU | -2.48 ± 0.22 | -2.74 ± 0.28 |
| UACCAGCAAUAUUACGAGUU | -1.28 ± 0.073 | -0.876 ± 0.076 |
| UACCAGCAAUAUUACGCCAC | -3.59 ± 0.2 | -3.17 ± 0.37 |
| UACCAGCAAUAUUACGCCCA | -0.817 ± 0.1 | -0.342 ± 0.14 |
